From paper PMC11203576
pKd: −log10 of the molar value.

Molecular target: SARS-CoV-2 spike protein RBD, original (wild-type), sfGFP fusion (SARS-CoV-2) (UniProt P0DTC2)
Test: SPR; Biacore T200; […] (0.01 M HEPES, 0.15 M NaCl, 3 mM EDTA, 0.05% surfactant P20, […]

Jacalin (natural protein) gave a pKd of 6.37.
